Source: the supplement of paper PMC9170038

System: MS2 coat protein
Assay: apparent KD of MS2 coat protein; designed switch direction (-1 OFF switch, 1 ON switch): 1; higher = weaker reporter binding
How it was run: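 Designed RNA switches were transcribed on Illumina chips by stalled E. coli RNA polymerase and titrated with SNAP-549-labelled MS2 coat protein from 0.7 or 1.5 nM, doubling to 3 µM. Step length ran from 0.8–1.5 h at the lowest concentration to 10–20 min at the highest. The apparent KD is the median over clusters for each design, from curve-fitted normalised cluster fluorescence.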

[1] = Eterna round: R95, input ligand: FMN 200 uM
[2] = Eterna round: R95, input ligand: microRNA oligo, concentration not stated
[3] = Eterna round: R95, input ligand: none
[4] = input ligand: microRNA oligo, concentration not stated

Sequence	apparent KD of MS2 coat protein [1] [nM]	apparent KD of MS2 coat protein [2] [nM]	apparent KD of MS2 coat protein [3] [nM]	apparent KD of MS2 coat protein (input ligand: FMN 200 uM) [nM]	apparent KD of MS2 coat protein [4] [nM]	apparent KD of MS2 coat protein (input ligand: none) [nM]
UCUUGGUUUUUGCUCGUUUUUUGUGUUGAACAUGAGGAUCACCCAUGUAUUGUACGGUCCGAUUUAGUGGUAGUCCG [JMF 72] (puzzle: Sensor for hsa-mir-208a)	34.7	23.5	36	–	–	–
UCUUGGUUUUUGCUCGUUUUUUGUGUUGAACAUGAGGAUCACCCAUGUAUUGUACGGUCCGGUUUGAUGAUGGUCCA [JMF 46] (puzzle: Sensor for hsa-mir-208a)	35.6	23.9	38.3	–	–	–
UGAAUAUUUACAGGAUAUGAGUUGUAUAGUGGGUCAGAAGGGUGGGUGUUUUGCACGGUGUGUUACAUGAGGAUCACCCAUGUU [SameState NG1 #27] (Eterna round: R96, puzzle: Same State NG 1)	–	–	–	129	74.5	146
UGACACACGGCAGGAUAUCGAUUGCAAAGCAAUCGAGAAGGGCCUCAUGUCGUGGAAACGUGACAUGAGGAUCACCCAUGUUGC [Omei SS(NG)1 Cv14] (Eterna round: R96, puzzle: Same State NG 1)	–	–	–	178	19.6	32.9
UGCCUGAGUCGAGGAUAUUAUGGAUCCUUUAAUACAUGAGGAUCACCCAUGUAAUUAAUUAUACAUGAGAAGGUGACUCAGGCA [SSNG2/11-B2] (Eterna round: R96, puzzle: Same State NG 2)	–	–	–	39	126	289
UGCUUCGUGUGAGGAUAUGCUGCCGUUUCGGCUGCAGAAGGUACUAUAAUACAUGAGGAUCACCCAUGUCUGUCGGUUUGCGGG [salish99_SSng1_r04_305-lowA] (Eterna round: R96, puzzle: Same State NG 1)	–	–	–	46.4	28.8	49.3
UGGAUCUAGGCUUGCCUGGGUCCAUGCUGACAUGAGGAUCACCCAUGUGCAUCCUACAAGCUUUUUGCUUGUCGGCU (puzzle: Sensor for hsa-mir-208a)	178	194	221	–	–	–
UGGAUCUAGGCUUGCCUGGGUCCUUCAAGACAUGAGGAUCACCCAUGUGUUUUUUUUUUGCUUUUUGUUUGUCUUGA [JL A Humble Attempt mod 2] (puzzle: Sensor for hsa-mir-208a)	50.8	15	23.1	–	–	–
UGGCUCAGACGAGGAUAUACGUGGUCACAUGAGGAUCACCCAUGUCUCGAGCUUCGGCUCGAGGCGUAGAAGGUGUCUGAGCCU [SSNG2/6-C3] (Eterna round: R96, puzzle: Same State NG 2)	–	–	–	237	363	662
UGGCUCAGACGAGGAUAUAUGUGAUCACAUGAGGAUCACCCAUGUCUCGAGCUUCGGCUCGAGACAUAGAAGGCGUCUGAGCCU [SSNG2/3-A3] (Eterna round: R96, puzzle: Same State NG 2)	–	–	–	512	12.3	17.8
UGGUAACAUGAGGAUCACCCAUGUCAAAUGAAUCGAGGAUAUGGGAAAGGAGAAGAGAAACCAGAAGGCGAAGUUG [Altered State 1-13 - Jieux - Same State 1] (puzzle: Same State 1)	50.7	54.1	51.9	–	–	–
UGGUAACAUGAGGAUCACCCAUGUCAAAUGAAUCUAGGAUAUGGGAAAGGAGAAGAGAAACCAGAAGGAGAGGUUG [Altered State 1-14 - Jieux - Same State 1] (puzzle: Same State 1)	179	63.1	107	–	–	–
UGGUACAUGGGAGGAUAUCAUGCAAACAUGAGGAUCACCCAUGUAGCCAUGGAGACAUGGGUAUAUGAGAAGGCCCAUGUACCU [JL SSNG1 3.52] (Eterna round: R96, puzzle: Same State NG 2)	–	–	–	317	51.9	88.3
UGGUACAUGGGAGGAUAUCAUGUAGACAUGAGGAUCACCCAUGUAGCCAUGGAGACAUGGGAGAAUGAGAAGGCCCAUGUACCU [JL SSNG1 3.54] (Eterna round: R96, puzzle: Same State NG 2)	–	–	–	298	14.1	104
UGGUACAUGGGAGGAUAUCUCAUGGAGACAUGAGGAUCACCCAUGUAGAUGGCCGGUAACCGGAGAGAGAAGGCCCAUGUACCU [JL SSNG1 3.67] (Eterna round: R96, puzzle: Same State NG 2)	–	–	–	79.6	152	198
UGGUACAUGGGAGGAUAUCUCGUGGAGACAUGAGGAUCACCCAUGUAGAUGGCCGGUAACCGGAGAGAGAAGGCCCAUGUACCU [JL SSNG1 3.68] (Eterna round: R96, puzzle: Same State NG 2)	–	–	–	66.9	65.4	159
UGGUACAUGGGAGGAUAUGGAGUGAUGACAUGAGGAUCACCCAUGUUAAAUAUGCCGAGAGGCAACUAGAAGGCCCAUGUACCU [JL SSNG1 3.98] (Eterna round: R96, puzzle: Same State NG 2)	–	–	–	22.3	298	418
UGGUACAUGGGAGGAUAUGGAGUGAUGACAUGAGGAUCACCCAUGUUAUAAAUGCCGAGAGGCAACUAGAAGGCCCAUGUACCU [JL SSNG1 3.95] (Eterna round: R96, puzzle: Same State NG 2)	–	–	–	23.2	149	149
UGUACCUUCACAGGAUAUCAUGCGAAAAUUGCGUGAGAAGGGUGAAUACUGUCUUUCUAAGAGCACAUGAGGAUCACCCAUGUA [SameState NG1 #59] (Eterna round: R96, puzzle: Same State NG 1)	–	–	–	195	206	278
UGUCCAGCCUGAGCUGGACAAAAGCAUGUACAUGAGGAUCACCCAUGUUCAUGUACAAGCUUUUUGCUCGUCUUAAC [salish99_208a_r3_033] (puzzle: Sensor for hsa-mir-208a)	354	14.1	465	–	–	–
